Substitutions are numbered along the chain they refer to.
B1: Nanobody 7C10 (VHH)
VHH: EVQLVESGGGLVQAGGSLRLSCTASGRTLSSYTMGWFRQAPGTEREFVAAMTRSGFNTYYADSVKGRFTISRDSTENTMALQMSSLKPEDTAVYYCTAGRGLTSYRADYWGQGTLVTVSS
B2: Nanobody 10C05 (VHH)
VHH: EVQLVESGGGLVQPGGSLRLSCAASGSIFSINTMGWYRQAPGKQRDLVASITMNQVPNYADSVQGRFTISRDNVRNTVHLQMNAVKPEDTADYFCNAWVRSSGASPYTNYWGQGTQVTVSS
B3: Nanobody 11B09 (VHH)
VHH: EVQLVESGGGLVQAGGSLRLSCAASRLTFNHYNMGWFRQAPGKERERVAEVTWSGDKIYYVDSVKGRFTISRDNTPNPVYLYLQMNSLKPEDTAVYYCATAPRGLPYANGYWGQGTQVTVSS
B4: Nanobody 12B02 (VHH)
VHH: EVQLVESGGGLVQPGGSLRLSCAASGFSLGVFAIGWFRQAPGKEREGVSCIDSSDGRTTYADSVKGRFTISRDNAKNTVYLQMNSLKPEDTAVYYCATDIETDVCSGAGWGFWGQGTQVTVSS
B5: Nanobody 14B10 (VHH)
VHH: EVQLVESGGGLVQPGGSLRLSCAASGRIFSINNMGWYHQAPGKQRELVATITMNGITTYADSVKGRFTISRDNAKNTVYLQMNSLKPEDTAVYYCSCWVRSSGGDPYRDYWGQGTQVTVSS
B6: Nanobody 2B02 (VHH)
VHH: EVQLVESGGGLVQPGDSLRLSCAASGRILSINNMVWYRQAPGKQRELVAHITSSGSTGYADSVKGRFTISRDNAKNTFYLQMTNLNPEDTAVYYCNCWVSSDSNAPLKNYWGQGTQVTVSS
B7: Nanobody 2G09 (VHH)
VHH: EVQLVESGGGLVQPGGSLRLSCAASGSFGDNYELYAMTWFRQAPGERRDFVASVTGDGSTSYADSVKDRFTISRDNAKKLMYLQMNSLKPEDTAVYYCRLLNYWGQGTLVTVSS
B8: Nanobody 3B11 (VHH)
VHH: EVQLVESGGGLVQAGGSLRLSCAASGFTFDDYVIGWFRQAPGKEREGVSCISRLDGRTYYTDSVKGRFTISSDNAKNTVYLQMNSLKPEDTAVYYCALEPRYTGDYYPVHPELYDYWGQGTQVTVSS
B9: Nanobody 3E10 (VHH)
VHH: EVQLVESGGGLVQAGGSLRLSCTASGHTFSSYTMGWFRQAPGKEREFVAAMTRSGFNTHYSDSVKGRFTISRDNTSRDNTKITMALQMNSLKPEDTAVYYCTTGRGLTSYVANFWGQGTQVTVSS
B10: Nanobody 4C03 (VHH)
VHH: EVQLVESGGGLVQAGGSLRLSCVISASTVRNYDMGWFRQAPGKEREFVAAIDWSGGSTRYADSVKGRFTVSRDNAKNTVYLQMNSLKPEDTAVYYCVAAGFYNNYLRTAPNDWNYWGQGTLVTVSS
B11: Nanobody 4G10 (VHH)
VHH: B10 VHH with A26E, S27D, T28G, A50T, D52N, R59N, V79M, N84D, Y115D, L121Q
B12: Nanobody 5E02 (VHH)
VHH: EVQLVESGGGLVQPGGSLRLSCAASGITLDSIAICWFRQAPGKEREGVSCSRGSDGSTYYADSVKGRFTISRVNAKNTVYLQMNSLKPEDTAVYYCAAAPSIFYSGGYFPSGMDYWGKGTQVTVSS
B13: Nanobody 256 (13F07-40GS-5H01) (VHH)
chain: EVQLVESGGGLVQAGGSLRLSCAASGNTFSTNPMYWYRQAEGKQRELVASISSRGITNYADSVRGRFSISRDNTKDTVYLQMNSLKPEDTAVYYCRLASLSSGTVYWGKGTLVTVSSGGGGSGGGGSGGGGSGGGGSGGGGSGGGGSGGGGSGGGGSEVQLVESGGGLVQPGGSLRLSCAASGSTLDYYAIGWFRQAPGKEREGVSCTSNSGSTYYGGSVKGRFTASRDNAKNTVYLQMNSLRPEDTAVYYCVATIGCATLGGTLDVQRYYYRGQGTLVTVSS
B14: Nanobody 257 (13F07-40GS-2B10) (VHH)
chain: EVQLVESGGGLVQAGGSLRLSCAASGNTFSTNPMYWYRQAEGKQRELVASISSRGITNYADSVRGRFSISRDNTKDTVYLQMNSLKPEDTAVYYCRLASLSSGTVYWGKGTLVTVSSGGGGSGGGGSGGGGSGGGGSGGGGSGGGGSGGGGSGGGGSEVQLVESGGGLVQPGGSLRLSCAASGSIFSINNMGWYRQAPGKQRELVTVVTSNLITTYADSVKGRFTISRDNAKNTVYLQMNSLKPEDTAVYYCNAWARSVGSVPYSQFWGQGTLVTVSS
B15: Nanobody 259 (1E11-40GS-5H01) (VHH)
chain: EVQLVESGGGLVQPGGSLRLSCAASGSTRSVNPMAWFRQAPGRQREWVATISRSGYATYADSVKGRFTISGDNAKSSVYLQMNSLKPEDTAVYYCVTGTYWGQGTLVTVSSGGGGSGGGGSGGGGSGGGGSGGGGSGGGGSGGGGSGGGGSEVQLVESGGGLVQPGGSLRLSCAASGSTLDYYAIGWFRQAPGKEREGVSCTSNSGSTYYGGSVKGRFTASRDNAKNTVYLQMNSLRPEDTAVYYCVATIGCATLGGTLDVQRYYYRGQGTLVTVSS
B16: Nanobody 261 (5H01-40GS-2B10) (VHH)
chain: EVQLVESGGGLVQPGGSLRLSCAASGSTLDYYAIGWFRQAPGKEREGVSCTSNSGSTYYGGSVKGRFTASRDNAKNTVYLQMNSLRPEDTAVYYCVATIGCATLGGTLDVQRYYYRGQGTLVTVSSGGGGSGGGGSGGGGSGGGGSGGGGSGGGGSGGGGSGGGGSEVQLVESGGGLVQPGGSLRLSCAASGSIFSINNMGWYRQAPGKQRELVTVVTSNLITTYADSVKGRFTISRDNAKNTVYLQMNSLKPEDTAVYYCNAWARSVGSVPYSQFWGQGTLVTVSS
B17: Nanobody 271 (7C10-40GS-14E10) (VHH)
chain: EVQLVESGGGLVQAGGSLRLSCTASGRTLSSYTMGWFRQAPGTEREFVAAMTRSGFNTYYADSVKGRFTISRDSTENTMALQMSSLKPEDTAVYYCTAGRGLTSYRADYWGQGTLVTVSSGGGGSGGGGSGGGGSGGGGSGGGGSGGGGSGGGGSGGGGSEVQLVESGGGLVQPGGSLRLSCAASGRIFSINTMGWYRQAPGKQRELVAGVTINAITNYADSVKGRFTISRDNAKNTVWLQMNSLKPEDTAVYYCHAWARSSGSAPYSQNWGQGTLVTVSS

Target: T1, PcrV of P. aeruginosa strain PA103 (on TTSS-induced bacteria) (Pseudomonas aeruginosa strain PA103)
Test: cell-based or functional assay
Wherever cytotox assay (% inhibition), P3X63, PA103 is given: test concentration or dose not given here.

Row | Binder | cytotox assay (% inhibition), P3X63, PA103 [%]
1 | B1 | 58
2 | B2 | 25
3 | B3 | 37
4 | B4 | 14
5 | B5 | 20
6 | B6 | 46
7 | B7 | 45
8 | B8 | 26
9 | B9 | 25
10 | B10 | 22
11 | B11 | 81
12 | B12 | 71

Target: T1, PcrV of P. aeruginosa strain PA103 (on …)
Test: cell-based or functional assay
Remark: another data set of the same source

Row | Binder | % inhibition, P3X63 cytotoxicity assay, MOI 4 [%] | IC50 (nM), P3X63 cytotoxicity assay, MOI 4 [nM] | % inhibition, P3X63 cytotoxicity assay, MOI 3 [%] | IC50 (nM), P3X63 cytotoxicity assay, MOI 3 [nM] | % inhibition, P3X63 cytotoxicity assay, MOI 1.5 [%] | IC50 (nM), P3X63 cytotoxicity assay, MOI 1.5 [nM]
13 | B1 | 100 | 42 | – | – | – | –
14 | B2 | – | – | 100 | > 1000 | – | –
15 | B3 | – | – | 100 | 100 | – | –
16 | B5 | – | – | > 70 | > 3000 | – | –
17 | B6 | 100 | 1730 | – | – | – | –
18 | B7 | 55 | 4 | – | – | – | –
19 | B8 | 54 | 1140 | – | – | – | –
20 | B9 | 94 | 48 | – | – | – | –
21 | B10 | – | – | – | – | > 20 | 8890
22 | B11 | 100 | 105 | – | – | – | –
23 | B12 | 100 | 38 | – | – | – | –

Target: T1, PcrV of P. aeruginosa strain PA103 (on …)
Test: cell-based or functional assay
Remark: another data set of the same source

Row | Binder | % inhibition in P3X63 cytotoxicity assay, extract 1/150 [%]
24 | B13 | 65
25 | B14 | 80
26 | B15 | 52
27 | B16 | 42
28 | B17 | 43

Target: T1, PcrV of P. aeruginosa strain PA103 (on …)
Test: cell-based or functional assay
Remark: another data set of the same source

Row | Binder | Efficacy (%), P3X63 cytotoxicity, MOI 12 [%] | IC50 value (M), P3X63 cytotoxicity, MOI 12 [M]
29 | B13 | 100 | 5.4e-11
30 | B14 | 100 | 1.3e-10
31 | B15 | 100 | 3.9e-11
32 | B16 | 100 | 4.8e-10
33 | B17 | 100 | 5.9e-10

Target: T1, PcrV of P. aeruginosa strain PA103 (on …)
Test: cell-based or functional assay
Remark: another data set of the same source

Row | Binder | Ratio (IC50 Fab 13.37/IC50 Nanobody), A549 cytotoxicity [fold]
34 | B13 | 21
35 | B14 | 10
36 | B15 | 9
37 | B16 | 1
38 | B17 | 1

Target: GST-PcrV (strain PAO1, amino acid residues 1-294) (Pseudomonas aeruginosa strain PAO1)
Test: SPR Biacore T100, GST-PcrV immobilised

Row | Binder | Kd [nM] | koff [s⁻¹] | kon [M⁻¹ s⁻¹]
39 | B1 | 2 | 0.0018 | 1.2e+06
40 | B9 | 1 | 0.0039 | 2.7e+06
41 | B11 | 5 | 0.00065 | 140000
42 | B12 | 4 | 0.00068 | 180000

Target: T2, recombinant PcrV protein (rPcrV), strain PAO1, amino acid residues 1-294, C-terminal His6 (Pseudomonas aeruginosa strain PAO1)
Test: ELISA, periplasmic extract on biotinylated rPcrV

Row | Binder | binding ELISA (OD 450 nm)
43 | B1 | 2.55
44 | B6 | 2.4
45 | B7 | 2.37
46 | B8 | 0.55
47 | B9 | 2.51
48 | B10 | 0.89
49 | B11 | 2.6
50 | B12 | 2.43

Target: T2, recombinant PcrV protein (rPcrV), …
Test: SPR ProteOn, periplasmic extract on immobilised rPcrV

Row | Binder | koff [s⁻¹]
51 | B1 | 0.00082
52 | B2 | 0.0006
53 | B3 | 0.0048
54 | B4 | 4.4e-05
55 | B5 | 0.00092
56 | B6 | 0.00037
57 | B7 | 0.001
58 | B8 | 0.0027
59 | B9 | 0.0015
60 | B10 | 0.0068
61 | B11 | 0.00013
62 | B12 | 0.00057

From patent publication US20190055322A1 (Ablynx, published 2019)
